Assay results: patent US20190375831A1

Legend:
[1] = target: recombinant PfCSP (rPfCSP, residues 21-375) (Plasmodium falciparum) (UniProt P19597); test: biolayer interferometry, biotinylated CSP on the sensor, whole IgG in solution; apparent KD
[2] = target: recombinant PfCSP (rPfCSP, residues 21-375) (Plasmodium falciparum) (UniProt P19597); test: ELISA on coated rPfCSP, OD405nm
[3] = target: recombinant PfCSP (rPfCSP, residues 21-375) (Plasmodium falciparum) (UniProt P19597)

Sequence of recombinant PfCSP (rPfCSP, residues 21-375) (Plasmodium falciparum) (P19597 21-375): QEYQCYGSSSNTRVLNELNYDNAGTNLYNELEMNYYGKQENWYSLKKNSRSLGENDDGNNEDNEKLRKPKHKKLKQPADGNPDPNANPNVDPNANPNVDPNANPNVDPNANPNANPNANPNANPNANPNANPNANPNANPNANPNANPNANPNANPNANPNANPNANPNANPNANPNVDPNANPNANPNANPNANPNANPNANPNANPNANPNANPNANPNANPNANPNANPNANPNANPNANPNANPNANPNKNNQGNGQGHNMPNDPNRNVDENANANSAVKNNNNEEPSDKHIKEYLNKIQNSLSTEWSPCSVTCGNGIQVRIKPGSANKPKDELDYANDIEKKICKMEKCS

Substance: mAb2A10 (antibody)
- Kd [1]: 0.15 nM
- EC50 (read off the curve) [2]: 0.04 mg/L

Substance: mAb CIS43 (antibody)
- Kd [1]: 0.91 nM
- -TΔS1 [3]: 35.1 kJ/mol
- -TΔS2 [3]: 0.418 kJ/mol
- N1 (stoichiometry) [3]: 1.2
- N2 (stoichiometry) [3]: 5.1
- ΔH1 [3]: -81.6 kJ/mol
- ΔH2 [3]: -42.7 kJ/mol
- EC50 (read off the curve) [2]: 0.003 mg/L
